Laboratory results taken from patent US20240101687A1.
Changes are numbered by the printed parent chain.

B1: Hu3A9-1564 (bispecific antibody, part only; not given: Hu3A9 heavy and light chains, part only)
heavy, part: GGGGSGGGGSGGGGSQSVLTQPPSASGTPGQRVTISCTGSSSNIGSNDVSWYQQLPGTAPKLLIYANSNRPSGVPDRFSGSKSGTSASLAISGLRSEDEADYYCGAWDDSLNGYVFGCGTKLTVLGGGGSGGGGSGGGGSGGGGSEVQLLESGGGLVQPGGSLRLSCAASGFTFSSYDMSWVRQAPGKCLEWVSAISYDNGNTYYADSVKGRFTISRDNSKNTLYLQMNSLRAEDTAVYYCAKGVLTTLMNWFDYWGQGTLVTVSS
B2: Hu3A9-C04 (bispecific antibody, part only; not given: Hu3A9 heavy and light chains, part only)
heavy, part: GGGGSGGGGSGGGGSQSVLTQPPSASGTPGQRVTISCTGSSSNIGSNDVSWYQQLPGTAPKLLIYANSNRPSGVPDRFSGSKSGTSASLAISGLRSEDEADYYCGAWEQWLNGYVFGCGTKLTVLGGGGSGGGGSGGGGSGGGGSEVQLLESGGGLVQPGGSLRLSCAASGFTFSSYDMSWVRQAPGKLEWVSAISYDNGNTYYADSVKGRFTISRDNSKNTLYLQMNSLRAEDTAVYYCAKGVLTTLMNWFDYWGQGTLVTVSS
B3: hu3A9 × 1564_F06 (bispecific antibody, part only; not given: hu3A9 heavy and light chains, part only)
heavy, part: B1 heavy, part with A106T, D108A, D109G
B4: Hu3A9-A02 (bispecific antibody, part only; not given: Hu3A9 heavy and light chains, part only)
heavy, part: B1 heavy, part with P75S, D109T, S110T, C118G, C189G
B5: Hu3A9-B10 (bispecific antibody, part only; not given: Hu3A9 heavy and light chains, part only)
heavy, part: B1 heavy, part with P75S, A106S, D109V, C118G, C189G
B6: Hu3A9-B01 (bispecific antibody, part only; not given: Hu3A9 heavy and light chains, part only)
heavy, part: B1 heavy, part with P75S, C118G, C189G, Y198W, N200K, G201A, N202Q, T203P
B7: Hu3A9-E09 (bispecific antibody, part only; not given: Hu3A9 heavy and light chains, part only)
heavy, part: B1 heavy, part with P75S, C118G, C189G, Y198W, D199G, N200Q, N202K

Tests used:
[1] = target: human IGF1R on cells (human) (UniProt P08069); assay: FACS on MCF-7 cells, 10 ug/mL (2nd Ab only: 2.86)
[2] = target: human IGF1R extracellular domain, His-tagged (human) (UniProt P08069); assay: ELISA on ECD of IGF1R
[3] = target: human IGF1R on cells (human) (UniProt P08069); assay: FACS on MCF-7 cells (2nd Ab only: 2.92)

Binder	GeoMean, Internalization at 37° C. [1]	EC50 [2]	GEOmean [3]
B1	7.72	0.144 nM	
B2	7.23	0.107 nM	3.88
B3	19.8		
B4		0.13 nM	
B5		0.156 nM	
B6		0.145 nM	
B7		0.159 nM	
